The numbers were not newly measured in paper PMC9623233 (Clinical Cancer Research, 2022), which cites them from elsewhere.

For this data set the following is noted: cited from earlier work.

Read-outs that look alike come from different tables or passages of the source.

As for “mirvetuximab soravtansine: α-FR–targeted antibody–drug conjugate with maytansine payload”, the Pneumonitis runs as follows: (combined with bevacizumab) 9%; (single agent) 2.9%.
